Source: article doi:10.1101/2020.12.31.424868 (bioRxiv, 2020)

Target: head domain of VN/04 HA (A/Vietnam/1203/2004 H5N1), monomeric (Influenza A virus A/Vietnam/1203/2004 …, strain)
Assay: crystal structure

B1: H5.31 Fab (recombinant) (Fab, V domains shown)
VH: EVQLVQSGGGLVQPGGSLRLSCEASRFTSSSYWITWVRQAPGKGLEWVANIKQDGSEKYFVDSVKGRFTISRDNASNSLYLQMSSLRAEDTAVYYCARGFLERLLLGRQGAYYYGMDVWGQGTTVTVSS
VL: DIVMTQSPFSLSASVGDRVTMTCRASQSISSSLNWYQQKPGKAPKLLIYAASNLQSGVPSRFSGSGSGTDFTLTISSLQPEDFATYYCQQSYTMPPELTFGGGTKVEIK
**Q.** Does B1 bind?
**A.** Result: binds
